Reference: IntAct's records for PubMed 35512704

B1: Speckle-type POZ protein (Homo sapiens), O43791 (parent)
chain: MSRVPSPPPPAEMSSGPVAESWCYTQIKVVKFSYMWTINNFSFCREEMGEVIKSSTFSSGANDKLKWCLRVNPKGLDEESKDYLSLYLLLVSCPKSEVRAKFKFSILNAKGEETKAMESQRAYRFVQGKDWGFKKFIRRDFLLDEANGLLPDDKLTLFCEVSVVQDSVNISGQNTMNMVKVPECRLADELGGLWENSRFTDCCLCVAGQEFQAHKAILAARSPVFSAMFEHEMEESKKNRVEINDVEPEVFKEMMCFIYTGKAPNLDKMADDLLAAADKYALERLKVMCEDALCSNLSVENAAEILILADLHSADQLKTQAVDFINYHASDVLETSGWKSMVVSHPHLVAEAYRSLASAQCPFLGPPRKRLKQS

Variants of: B1
Settings: with nox1_human NOX1, Q9Y5S8

effect of a mutation on the interaction	Variant
with no effect	Y87C

Variants of: B1
Settings: with ntrk2_human NTRK2, Q16620

effect of a mutation on the interaction	Variant
with no effect	Y87C

Variants of: B1
Settings: with ntrk3_human NTRK3, Q16288

effect of a mutation on the interaction	Variant
with no effect	Y87C

Variants of: B1
Settings: with pak3_human PAK3, O75914

effect of a mutation on the interaction	Variant
with no effect	Y87C

Variants of: B1
Settings: with prkn_human PRKN

effect of a mutation on the interaction	Variant
with no effect	Y87C

Variants of: B1
Settings: with pb1_human PBRM1, Q86U86

effect of a mutation on the interaction	Variant
with no effect	Y87C

Variants of: B1
Settings: with pcbp1_human PCBP1, Q15365
Chain of pcbp1_human PCBP1, Q15365 (Q15365 whole entry): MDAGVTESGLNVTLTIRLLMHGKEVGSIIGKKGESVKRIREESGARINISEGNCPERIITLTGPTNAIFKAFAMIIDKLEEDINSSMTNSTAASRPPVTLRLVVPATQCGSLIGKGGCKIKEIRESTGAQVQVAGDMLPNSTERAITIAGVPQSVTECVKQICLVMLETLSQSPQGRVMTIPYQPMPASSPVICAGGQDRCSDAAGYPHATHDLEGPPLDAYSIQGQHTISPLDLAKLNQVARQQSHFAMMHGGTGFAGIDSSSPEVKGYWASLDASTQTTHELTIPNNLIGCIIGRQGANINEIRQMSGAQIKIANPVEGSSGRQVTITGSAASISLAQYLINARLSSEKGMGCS

effect of a mutation on the interaction	Variant
with no effect	Y87C

Variants of: B1
Settings: with pdcd1_human PDCD1, Q15116

effect of a mutation on the interaction	Variant
with no effect	Y87C

Variants of: B1
Settings: with pgfrb_human PDGFRB

effect of a mutation on the interaction	Variant
with no effect	Y87C

Variants of: B1
Settings: with pdk1_human PDK1, Q15118

effect of a mutation on the interaction	Variant
with no effect	Y87C

Variants of: B1
Settings: with PIK3C2B

effect of a mutation on the interaction	Variant
with no effect	Y87C

Variants of: B1
Settings: with pk3cb_human PIK3CB

effect of a mutation on the interaction	Variant
with no effect	Y87C

Variants of: B1
Settings: with pk3cg_human PIK3CG

effect of a mutation on the interaction	Variant
with no effect	Y87C

Variants of: B1
Settings: with p85b_human PIK3R2, O00459

effect of a mutation on the interaction	Variant
with no effect	Y87C

Variants of: B1
Settings: with dpod1_human POLD1, P28340
Chain of dpod1_human POLD1, P28340 (P28340 whole entry): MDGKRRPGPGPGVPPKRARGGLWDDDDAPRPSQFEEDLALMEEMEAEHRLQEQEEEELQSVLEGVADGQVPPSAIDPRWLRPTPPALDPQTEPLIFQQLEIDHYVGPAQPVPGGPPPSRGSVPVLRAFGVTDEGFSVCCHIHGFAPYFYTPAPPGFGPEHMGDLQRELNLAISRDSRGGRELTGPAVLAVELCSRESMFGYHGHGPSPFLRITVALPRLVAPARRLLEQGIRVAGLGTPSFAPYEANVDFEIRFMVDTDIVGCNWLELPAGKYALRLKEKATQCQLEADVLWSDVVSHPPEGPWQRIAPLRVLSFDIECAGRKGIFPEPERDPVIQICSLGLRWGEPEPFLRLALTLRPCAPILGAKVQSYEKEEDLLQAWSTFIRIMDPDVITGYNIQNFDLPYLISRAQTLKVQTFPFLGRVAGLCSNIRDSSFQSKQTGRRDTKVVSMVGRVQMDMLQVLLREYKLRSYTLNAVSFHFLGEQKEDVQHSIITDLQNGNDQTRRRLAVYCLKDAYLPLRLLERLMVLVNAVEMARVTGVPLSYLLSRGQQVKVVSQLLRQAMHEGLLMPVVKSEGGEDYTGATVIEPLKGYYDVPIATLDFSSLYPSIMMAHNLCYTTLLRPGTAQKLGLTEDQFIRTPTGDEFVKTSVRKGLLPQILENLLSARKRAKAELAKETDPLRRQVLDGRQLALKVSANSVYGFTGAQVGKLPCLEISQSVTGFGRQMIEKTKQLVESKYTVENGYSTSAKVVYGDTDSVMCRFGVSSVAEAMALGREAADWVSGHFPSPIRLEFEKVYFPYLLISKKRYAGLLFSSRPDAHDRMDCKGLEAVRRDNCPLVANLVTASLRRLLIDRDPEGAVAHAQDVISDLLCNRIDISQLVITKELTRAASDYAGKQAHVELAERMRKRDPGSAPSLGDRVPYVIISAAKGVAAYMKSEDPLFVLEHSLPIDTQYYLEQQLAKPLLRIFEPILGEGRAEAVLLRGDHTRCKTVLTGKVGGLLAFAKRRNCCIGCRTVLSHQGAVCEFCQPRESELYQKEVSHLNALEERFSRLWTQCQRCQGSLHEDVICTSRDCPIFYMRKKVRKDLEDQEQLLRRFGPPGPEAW

effect of a mutation on the interaction	Variant
with no effect	Y87C

Variants of: B1
Settings: with dpoe1_human POLE

effect of a mutation on the interaction	Variant
with no effect	Y87C

Variants of: B1
Settings: with ppard_human PPARD

effect of a mutation on the interaction	Variant
with no effect	Y87C

Variants of: B1
Settings: with prdm1_human PRDM1, O75626
Chain of prdm1_human PRDM1, O75626 (O75626 whole entry): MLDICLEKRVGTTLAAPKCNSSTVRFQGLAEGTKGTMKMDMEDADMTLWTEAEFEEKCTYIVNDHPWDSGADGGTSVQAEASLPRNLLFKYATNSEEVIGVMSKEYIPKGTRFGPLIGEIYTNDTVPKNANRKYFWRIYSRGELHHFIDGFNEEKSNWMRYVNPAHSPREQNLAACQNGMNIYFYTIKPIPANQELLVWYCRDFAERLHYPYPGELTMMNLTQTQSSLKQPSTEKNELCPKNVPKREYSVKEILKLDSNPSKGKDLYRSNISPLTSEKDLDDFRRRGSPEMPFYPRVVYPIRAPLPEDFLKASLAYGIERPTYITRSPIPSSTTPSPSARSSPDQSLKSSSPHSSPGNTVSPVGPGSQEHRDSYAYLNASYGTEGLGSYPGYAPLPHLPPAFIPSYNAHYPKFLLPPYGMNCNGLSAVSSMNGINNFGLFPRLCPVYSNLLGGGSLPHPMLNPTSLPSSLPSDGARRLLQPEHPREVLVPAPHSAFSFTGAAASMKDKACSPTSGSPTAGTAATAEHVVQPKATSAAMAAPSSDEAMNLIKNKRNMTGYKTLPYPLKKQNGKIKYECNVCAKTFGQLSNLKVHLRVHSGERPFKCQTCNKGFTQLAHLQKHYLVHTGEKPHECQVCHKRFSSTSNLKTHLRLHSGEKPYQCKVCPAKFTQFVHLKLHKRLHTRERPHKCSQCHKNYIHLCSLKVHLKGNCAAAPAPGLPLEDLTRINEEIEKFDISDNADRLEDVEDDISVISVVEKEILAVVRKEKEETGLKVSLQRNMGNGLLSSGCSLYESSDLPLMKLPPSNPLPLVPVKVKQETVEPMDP

effect of a mutation on the interaction	Variant
with no effect	Y87C

Variants of: B1
Settings: with prex2_human PREX2, Q70Z35

effect of a mutation on the interaction	Variant
with no effect	Y87C

Variants of: B1
Settings: with aapk2_human PRKAA2, P54646

effect of a mutation on the interaction	Variant
with no effect	Y87C

Variants of: B1
Settings: with prss8_human PRSS8, Q16651

effect of a mutation on the interaction	Variant
with no effect	Y87C

Variants of: B1
Settings: with ptk6_human PTK6, Q13882

effect of a mutation on the interaction	Variant
with no effect	Y87C

Variants of: B1
Settings: with tf65_human RELA

effect of a mutation on the interaction	Variant
with no effect	Y87C

Variants of: B1
Settings: with rictr_human RICTOR

effect of a mutation on the interaction	Variant
with no effect	Y87C

Variants of: B1
Settings: with rnf43_human RNF43, Q68DV7

effect of a mutation on the interaction	Variant
with no effect	Y87C

Variants of: B1
Settings: with ros1_human ROS1, P08922

effect of a mutation on the interaction	Variant
with no effect	Y87C

Variants of: B1
Settings: with rl11_human RPL11, P62913

effect of a mutation on the interaction	Variant
with no effect	Y87C

Variants of: B1
Settings: with rl5_human RPL5, P46777

effect of a mutation on the interaction	Variant
with no effect	Y87C

Variants of: B1
Settings: with rs15_human RPS15, P62841

effect of a mutation on the interaction	Variant
with no effect	Y87C

Variants of: B1
Settings: with rs2_human RPS2, P15880

effect of a mutation on the interaction	Variant
with no effect	Y87C

Variants of: B1
Settings: with rptor_human RPTOR

effect of a mutation on the interaction	Variant
with no effect	Y87C

Variants of: B1
Settings: with rxra_human RXRA

effect of a mutation on the interaction	Variant
with no effect	Y87C

Variants of: B1
Settings: with sdha_human SDHA

effect of a mutation on the interaction	Variant
with no effect	Y87C

Variants of: B1
Settings: with setbp_human SETBP1, Q9Y6X0

effect of a mutation on the interaction	Variant
with no effect	Y87C

Variants of: B1
Settings: with setb1_human SETDB1, Q15047

effect of a mutation on the interaction	Variant
with no effect	Y87C

Variants of: B1
Settings: with skp2_human SKP2, Q13309

effect of a mutation on the interaction	Variant
with no effect	Y87C

Variants of: B1
Settings: with smad1_human SMAD1, Q15797
Chain of smad1_human SMAD1, Q15797 (Q15797 whole entry): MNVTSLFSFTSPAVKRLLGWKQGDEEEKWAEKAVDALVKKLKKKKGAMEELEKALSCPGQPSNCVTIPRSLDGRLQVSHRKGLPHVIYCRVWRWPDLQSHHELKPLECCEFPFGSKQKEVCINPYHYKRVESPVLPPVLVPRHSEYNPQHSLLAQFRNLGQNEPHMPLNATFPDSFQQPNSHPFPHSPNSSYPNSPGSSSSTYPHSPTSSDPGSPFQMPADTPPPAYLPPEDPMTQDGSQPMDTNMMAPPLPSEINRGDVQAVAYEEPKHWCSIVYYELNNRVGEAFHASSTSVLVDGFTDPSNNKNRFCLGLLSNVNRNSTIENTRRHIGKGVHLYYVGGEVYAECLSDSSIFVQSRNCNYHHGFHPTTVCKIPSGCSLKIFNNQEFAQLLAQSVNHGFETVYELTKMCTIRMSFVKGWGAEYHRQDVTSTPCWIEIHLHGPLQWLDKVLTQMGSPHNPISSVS

effect of a mutation on the interaction	Variant
with no effect	Y87C

Variants of: B1
Settings: with smca4_human SMARCA4, P51532

effect of a mutation on the interaction	Variant
with no effect	Y87C

Variants of: B1
Settings: with snf5_human SMARCB1, Q12824
Chain of snf5_human SMARCB1, Q12824 (Q12824 whole entry): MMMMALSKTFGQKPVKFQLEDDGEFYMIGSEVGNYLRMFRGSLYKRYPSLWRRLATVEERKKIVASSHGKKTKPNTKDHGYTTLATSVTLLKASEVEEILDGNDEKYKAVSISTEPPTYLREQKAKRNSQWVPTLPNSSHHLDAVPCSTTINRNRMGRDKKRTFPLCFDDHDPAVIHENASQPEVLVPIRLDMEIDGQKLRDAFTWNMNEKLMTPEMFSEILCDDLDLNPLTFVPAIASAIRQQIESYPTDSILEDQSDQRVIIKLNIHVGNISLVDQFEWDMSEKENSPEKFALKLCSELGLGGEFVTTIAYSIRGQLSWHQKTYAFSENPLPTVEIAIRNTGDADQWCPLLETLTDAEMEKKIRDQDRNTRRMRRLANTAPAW

effect of a mutation on the interaction	Variant
with no effect	Y87C

Variants of: B1
Settings: with smo_human SMO

effect of a mutation on the interaction	Variant
with no effect	Y87C

Variants of: B1
Settings: with smuf1_human SMURF1, Q9HCE7
Chain of smuf1_human SMURF1, Q9HCE7 (Q9HCE7 whole entry): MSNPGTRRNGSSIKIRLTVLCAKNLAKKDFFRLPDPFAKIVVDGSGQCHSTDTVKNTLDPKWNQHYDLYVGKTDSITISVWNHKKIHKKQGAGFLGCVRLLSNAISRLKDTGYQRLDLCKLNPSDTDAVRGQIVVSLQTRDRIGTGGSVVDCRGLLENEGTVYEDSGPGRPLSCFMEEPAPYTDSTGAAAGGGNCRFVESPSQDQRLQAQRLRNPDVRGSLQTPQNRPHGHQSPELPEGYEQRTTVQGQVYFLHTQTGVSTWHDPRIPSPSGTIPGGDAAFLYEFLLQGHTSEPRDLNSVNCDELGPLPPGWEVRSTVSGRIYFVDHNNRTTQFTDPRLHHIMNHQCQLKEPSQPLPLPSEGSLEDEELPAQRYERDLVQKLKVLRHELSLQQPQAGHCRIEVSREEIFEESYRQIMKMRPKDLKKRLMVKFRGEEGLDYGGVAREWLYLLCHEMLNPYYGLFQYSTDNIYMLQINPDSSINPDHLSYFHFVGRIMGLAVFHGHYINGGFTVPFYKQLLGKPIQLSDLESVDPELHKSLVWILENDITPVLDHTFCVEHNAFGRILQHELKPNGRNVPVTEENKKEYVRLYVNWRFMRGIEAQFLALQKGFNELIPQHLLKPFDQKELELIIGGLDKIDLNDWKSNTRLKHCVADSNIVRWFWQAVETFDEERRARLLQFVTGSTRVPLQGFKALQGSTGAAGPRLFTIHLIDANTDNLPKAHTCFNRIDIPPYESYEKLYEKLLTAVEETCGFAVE

effect of a mutation on the interaction	Variant
with no effect	Y87C

Variants of: B1
Settings: with socs1_human SOCS1, O15524

effect of a mutation on the interaction	Variant
with no effect	Y87C

Variants of: B1
Settings: with sox10_human SOX10, P56693
Chain of sox10_human SOX10, P56693 (P56693 whole entry): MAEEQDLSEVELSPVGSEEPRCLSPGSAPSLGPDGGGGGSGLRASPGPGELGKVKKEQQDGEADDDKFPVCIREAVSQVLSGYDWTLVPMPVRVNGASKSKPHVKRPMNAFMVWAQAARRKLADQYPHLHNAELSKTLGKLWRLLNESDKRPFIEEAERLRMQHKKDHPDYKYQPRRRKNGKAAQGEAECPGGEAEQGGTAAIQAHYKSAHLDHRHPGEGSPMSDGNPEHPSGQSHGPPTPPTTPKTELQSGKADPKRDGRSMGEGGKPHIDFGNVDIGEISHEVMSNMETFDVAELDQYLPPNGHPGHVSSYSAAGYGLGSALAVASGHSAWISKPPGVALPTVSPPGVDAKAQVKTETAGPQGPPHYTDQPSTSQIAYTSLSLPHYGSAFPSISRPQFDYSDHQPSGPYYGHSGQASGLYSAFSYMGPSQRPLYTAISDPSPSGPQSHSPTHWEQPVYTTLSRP

effect of a mutation on the interaction	Variant
with no effect	Y87C

Variants of: B1
Settings: with sox2_human SOX2, P48431

effect of a mutation on the interaction	Variant
with no effect	Y87C

Variants of: B1
Settings: with src_human SRC

effect of a mutation on the interaction	Variant
with no effect	Y87C

Variants of: B1
Settings: with whr1_human WHR1, P49842
Chain of whr1_human WHR1, P49842 (P49842 whole entry): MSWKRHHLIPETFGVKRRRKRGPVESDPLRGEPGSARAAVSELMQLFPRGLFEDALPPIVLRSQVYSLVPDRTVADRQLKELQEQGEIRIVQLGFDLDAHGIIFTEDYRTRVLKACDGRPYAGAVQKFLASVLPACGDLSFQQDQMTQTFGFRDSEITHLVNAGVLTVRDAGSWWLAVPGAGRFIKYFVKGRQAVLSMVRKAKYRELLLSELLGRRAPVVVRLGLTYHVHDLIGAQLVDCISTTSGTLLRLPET

effect of a mutation on the interaction	Variant
with no effect	Y87C

Variants of: B1
Settings: with stk38_human STK38, Q15208

effect of a mutation on the interaction	Variant
with no effect	Y87C

Variants of: B1
Settings: with eloc_human ELOC

effect of a mutation on the interaction	Variant
with no effect	Y87C

Variants of: B1
Settings: with tfe2_human TCF3, P15923

effect of a mutation on the interaction	Variant
with no effect	Y87C

Variants of: B1
Settings: with tead1_human TEAD1, P28347

effect of a mutation on the interaction	Variant
with no effect	Y87C

Variants of: B1
Settings: with tead3_human TEAD3, Q99594

effect of a mutation on the interaction	Variant
with no effect	Y87C

Variants of: B1
Settings: with tead4_human TEAD4, Q15561

effect of a mutation on the interaction	Variant
with no effect	Y87C

Variants of: B1
Settings: with tet2_human TET2, Q6N021

effect of a mutation on the interaction	Variant
with no effect	Y87C

Variants of: B1
Settings: with tgfr2_human TGFBR2, P37173

effect of a mutation on the interaction	Variant
with no effect	Y87C

Variants of: B1
Settings: with tnr14_human TNFRSF14, Q92956

effect of a mutation on the interaction	Variant
with no effect	Y87C

Variants of: B1
Settings: with tsc2_human TSC2, P49815

effect of a mutation on the interaction	Variant
with no effect	Y87C

Variants of: B1
Settings: with tshr_human TSHR

effect of a mutation on the interaction	Variant
with no effect	Y87C

Variants of: B1
Settings: with vegfa_human VEGFA

effect of a mutation on the interaction	Variant
with no effect	Y87C

Variants of: B1
Settings: with vhl_human VHL

effect of a mutation on the interaction	Variant
with no effect	Y87C

Variants of: B1
Settings: with wee1_human WEE1, P30291

effect of a mutation on the interaction	Variant
with no effect	Y87C

Variants of: B1
Settings: with wwtr1_human WWTR1, Q9GZV5
Chain of wwtr1_human WWTR1, Q9GZV5 (Q9GZV5 whole entry): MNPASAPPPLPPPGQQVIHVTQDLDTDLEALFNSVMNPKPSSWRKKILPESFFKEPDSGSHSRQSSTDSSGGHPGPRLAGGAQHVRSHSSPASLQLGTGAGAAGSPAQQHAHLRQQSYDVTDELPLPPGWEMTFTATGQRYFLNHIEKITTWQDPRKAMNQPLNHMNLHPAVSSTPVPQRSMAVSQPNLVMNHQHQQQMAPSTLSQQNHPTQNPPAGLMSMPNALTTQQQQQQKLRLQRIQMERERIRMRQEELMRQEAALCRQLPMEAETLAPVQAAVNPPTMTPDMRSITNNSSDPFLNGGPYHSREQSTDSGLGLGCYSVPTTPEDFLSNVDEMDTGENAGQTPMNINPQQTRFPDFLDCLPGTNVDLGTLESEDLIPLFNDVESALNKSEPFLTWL

effect of a mutation on the interaction	Variant
with no effect	Y87C

Variants of: B1
Settings: with xpo1_human XPO1, O14980

effect of a mutation on the interaction	Variant
with no effect	Y87C

Variants of: B1
Settings: with il7ra_human IL7R

effect of a mutation on the interaction	Variant
increasing interaction strength	Y87C
